In article PMC4356968, “Characterization of the MCM homohexamer from the thermoacidophilic euryarchaeon Picrophilus torridus” (Scientific Reports, 2015):

Assays:
PtMCM = target: T1, PtMCM (Picrophilus oshimae, UniProt A0A8G2FX57, K337A); assay: ATP hydrolysis, gamma-32P ATP tracer, TLC; assay type: biochemical; conditions: pH 6.0, 55 °C, 10 or 100 uM ATP, no DNA, 800 nM protein, 60 min; Walker A mutant
T1 construct: gene SAMN02745355_1050; full length, N-terminal 6xHis and C-terminal Strep-tag kept; E. coli BL21 Codon Plus; tagged monomer 81 kDa (untagged ~76 kDa); homohexamer

[1] = target: His-PtGINS (Picrophilus torridus GINS, recombinant) (Picrophilus torridus); assay: SEC; Superdex 200 10/300 GL calibrated with protein standards, 50 mM potassium phosphate pH 7.4, 150 mM NaCl; molecular weight from retention volume; PtMCM 400 ug, profile unchanged over 1.5 to 5 uM protein
[2] = target: His-PtMCM-Strep (Picrophilus torridus MCM, recombinant) (Picrophilus torridus)
[3] = target: His-PtMCM-Strep (Picrophilus torridus MCM, recombinant) (Picrophilus torridus); remark: listed apart in the source
[4] = target: His-PtMCM-Strep (Picrophilus torridus MCM, recombinant) (Picrophilus torridus); remark: listed apart in the source
[5] = target: His-PtMCM-Strep (Picrophilus torridus MCM, recombinant) (Picrophilus torridus); assay: SEC; Superdex 200 10/300 GL calibrated with protein standards, 50 mM potassium phosphate pH 7.4, 150 mM NaCl; molecular weight from retention volume; PtMCM 400 ug, profile unchanged over 1.5 to 5 uM protein

T1 sequence (A0A8G2FX57 entry or part of it K337A): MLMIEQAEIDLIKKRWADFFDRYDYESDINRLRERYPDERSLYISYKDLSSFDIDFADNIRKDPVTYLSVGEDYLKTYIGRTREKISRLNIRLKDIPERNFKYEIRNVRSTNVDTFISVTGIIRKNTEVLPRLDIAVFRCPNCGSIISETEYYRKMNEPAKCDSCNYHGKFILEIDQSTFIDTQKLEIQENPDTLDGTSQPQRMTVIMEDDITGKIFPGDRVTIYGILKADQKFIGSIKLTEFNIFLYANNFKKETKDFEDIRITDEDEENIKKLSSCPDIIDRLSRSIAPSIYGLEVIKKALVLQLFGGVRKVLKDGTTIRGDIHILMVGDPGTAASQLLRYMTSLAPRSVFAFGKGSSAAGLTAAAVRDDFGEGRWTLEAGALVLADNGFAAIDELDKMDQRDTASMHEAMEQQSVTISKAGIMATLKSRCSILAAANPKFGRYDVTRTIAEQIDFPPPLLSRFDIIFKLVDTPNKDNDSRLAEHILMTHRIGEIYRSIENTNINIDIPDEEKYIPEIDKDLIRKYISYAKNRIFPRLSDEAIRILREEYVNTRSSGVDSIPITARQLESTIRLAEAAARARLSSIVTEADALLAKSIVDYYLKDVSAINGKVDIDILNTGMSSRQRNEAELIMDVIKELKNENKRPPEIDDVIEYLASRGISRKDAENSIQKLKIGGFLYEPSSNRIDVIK

Molecule: Nc1ncnc2c1ncn2[C@@H]1O[C@H](COP(=O)(O)OP(=O)(O)OP(=O)(O)O)[C@@H](O)[C@H]1O [ATP]
- ATP hydrolysis, gamma-32P ATP tracer, TLC (PtMCM): ATPase activity was drastically diminished in case of the mutant PtMCM-K337A

Molecule: His-PtGINS (Picrophilus torridus GINS, recombinant) (natural protein)
- stoichiometry N [1]: 4
- ATP hydrolysed during the helicase reaction at pH 6, 3-5 mM ATP, 500 nM PtMCM and 3000 nM PtGINS, 60 min; fold stimulation by GINS [2]: 2 fold
- MCM ATP hydrolysis with 100 uM ATP, 500 nM PtMCM and 3000 nM PtGINS, pH 3-7, with or without DNA, 60 min; fold increase with GINS at lower pH (no effect at pH 5-7) [3]: 2 fold
- ATP hydrolysed during the helicase reaction at pH 4, 5 mM ATP, 500 nM PtMCM and 3000 nM PtGINS, 60 min; fold stimulation by GINS [4]: > 50 fold

Molecule: His-PtMCM-Strep (Picrophilus torridus MCM, recombinant) (enzyme)
- stoichiometry N [5]: 6
